We go through four proteins from article PMC7196576, “Structural changes of a bacteriophage upon DNA packaging and maturation” (Protein & Cell, 2020).

This data set deals with the molecule itself. The data set can be described thus: cryo-EM structure; mature T7 phage purified from cells; icosahedral, symmetry-mismatch and local reconstructions (shell 3.5 Å, asymmetric 7 Å, portal-tail complex 3.8 Å, core 6.0 Å).

B1: nozzle protein gp12 of bacteriophage T7 (natural protein, Escherichia coli bacteriophage T7, UniProt P03747 1-794, looked up)
chain: MALISQSIKNLKGGISQQPDILRYPDQGSRQVNGWSSETEGLQKRPPLVFLNTLGDNGALGQAPYIHLINRDEHEQYYAVFTGSGIRVFDLSGNEKQVRYPNGSNYIKTANPRNDLRMVTVADYTFIVNRNVVAQKNTKSVNLPNYNPNQDGLINVRGGQYGRELIVHINGKDVAKYKIPDGSQPEHVNNTDAQWLAEELAKQMRTNLSDWTVNVGQGFIHVTAPSGQQIDSFTTKDGYADQLINPVTHYAQSFSKLPPNAPNGYMVKIVGDASKSADQYYVRYDAERKVWTETLGWNTEDQVLWETMPHALVRAADGNFDFKWLEWSPKSCGDVDTNPWPSFVGSSINDVFFFRNRLGFLSGENIILSRTAKYFNFYPASIANLSDDDPIDVAVSTNRIAILKYAVPFSEELLIWSDEAQFVLTASGTLTSKSVELNLTTQFDVQDRARPFGIGRNVYFASPRSSFTSIHRYYAVQDVSSVKNAEDITSHVPNYIPNGVFSICGSGTENFCSVLSHGDPSKIFMYKFLYLNEELRQQSWSHWDFGENVQVLACQSISSDMYVILRNEFNTFLARISFTKNAIDLQGEPYRAFMDMKIRYTIPSGTYNDDTFTTSIHIPTIYGANFGRGKITVLEPDGKITVFEQPTAGWNSDPWLRLSGNLEGRMVYIGFNINFVYEFSKFLIKQTADDGSTSTEDIGRLQLRRAWVNYENSGTFDIYVENQSSNWKYTMAGARLGSNTLRAGRLNLGTGQYRFPVVGNAKFNTVYILSDETTPLNIIGCGWEGNYLRRSSGI
notes: nozzle protein gp12, Escherichia coli bacteriophage T7; Native protein in the virion; hexameric tube; source: in mature T7 phage purified from cells
For orientation: stoichiometry N means a count of units in the complex or per binding partner. As for B1, the “stoichiometry N” value came to 6.

B2: portal protein gp8 of bacteriophage T7 (natural protein, Escherichia coli bacteriophage T7, UniProt P03728 1-536, looked up)
chain: MAEKRTGLAEDGAKSVYERLKNDRAPYETRAQNCAQYTIPSLFPKDSDNASTDYQTPWQAVGARGLNNLASKLMLALFPMQTWMRLTISEYEAKQLLSDPDGLAKVDEGLSMVERIIMNYIESNSYRVTLFEALKQLVVAGNVLLYLPEPEGSNYNPMKLYRLSSYVVQRDAFGNVLQMVTRDQIAFGALPEDIRKAVEGQGGEKKADETIDVYTHIYLDEDSGEYLRYEEVEGMEVQGSDGTYPKEACPYIPIRMVRLDGESYGRSYIEEYLGDLRSLENLQEAIVKMSMISSKVIGLVNPAGITQPRRLTKAQTGDFVTGRPEDISFLQLEKQADFTVAKAVSDAIEARLSFAFMLNSAVQRTGERVTAEEIRYVASELEDTLGGVYSILSQELQLPLVRVLLKQLQATQQIPELPKEAVEPTISTGLEAIGRGQDLDKLERCVTAWAALAPMRDDPDINLAMIKLRIANAIGIDTSGILLTEEQKQQKMAQQSMQMGMDNGAAALAQGMAAQATASPEAMAAAADSVGLQPGI
notes: portal protein gp8, Escherichia coli bacteriophage T7; domains clip (294-334), stem (335-356 and 269-293), wing (1-268, 357-427), crown (428-492), C-terminal helical barrel; Native protein in the virion; dodecamer at one vertex; The C-terminal barrel is not seen in capsid II; also called T7 portal; source: in mature T7 phage and T7 capsid II particles purified from cells; copies: 12
For the protein B2, the “stoichiometry N” value amounted to 12.

B3: adaptor protein gp11 of bacteriophage T7 (natural protein, Escherichia coli bacteriophage T7, UniProt P03746 1-196, looked up)
chain: MRSYDMNVETAAELSAVNDILASIGEPPVSTLEGDANADAANARRILNKINRQIQSRGWTFNIEEGITLLPDVYSNLIVYSDDYLSLMSTSGQSIYVNRGGYVYDRTSQSDRFDSGITVNIIRLRDYDEMPECFRYWIVTKASRQFNNRFFGAPEVEGVLQEEEDEARRLCMEYEMDYGGYNMLDGDAFTSGLLTR
notes: adaptor protein gp11, Escherichia coli bacteriophage T7; Native protein in the virion; dodecameric ring; also called tail adaptor; source: in mature T7 phage purified from cells; copies: 12
B3: the “stoichiometry N” value is 12.

B4: tail fiber gp17 of bacteriophage T7 (natural protein, Escherichia coli bacteriophage T7, UniProt P03748 1-553, looked up)
chain: MANVIKTVLTYQLDGSNRDFNIPFEYLARKFVVVTLIGVDRKVLTINTDYRFATRTTISLTKAWGPADGYTTIELRRVTSTTDRLVDFTDGSILRAYDLNVAQIQTMHVAEEARDLTTDTIGVNNDGHLDARGRRIVNLANAVDDRDAVPFGQLKTMNQNSWQARNEALQFRNEAETFRNQAEGFKNESSTNATNTKQWRDETKGFRDEAKRFKNTAGQYATSAGNSASAAHQSEVNAENSATASANSAHLAEQQADRAEREADKLENYNGLAGAIDKVDGTNVYWKGNIHANGRLYMTTNGFDCGQYQQFFGGVTNRYSVMEWGDENGWLMYVQRREWTTAIGGNIQLVVNGQIITQGGAMTGQLKLQNGHVLQLESASDKAHYILSKDGNRNNWYIGRGSDNNNDCTFHSYVHGTTLTLKQDYAVVNKHFHVGQAVVATDGNIQGTKWGGKWLDAYLRDSFVAKSKAWTQVWSGSAGGGVSVTVSQDLRFRNIWIKCANNSWNFFRTGPDGIYFIASDGGWLRFQIHSNGLGFKNIADSRSVPNAIMVENE
notes: tail fiber protein gp17, Escherichia coli bacteriophage T7; only the N-terminus (a jelly-roll barrel and a 22-residue alpha-helix) was resolved; Native protein in the virion; six trimers a phage; The distal parts of the fibers were too flexible to be resolved; source: in mature T7 phage purified from cells
For B4, the “stoichiometry N” value is 3.
